# Measurements reported in US10781456B2, “Carbon-neutral and carbon-positive photorespiration bypass routes supporting higher photosynthetic rate and yield” (Max-Planck-Gesellschaft zur Förderung der Wissenschaften …, priority 2015, dated 2020).
# T1: propionyl-CoA transferase from Ralstonia eutropha (PCTRe), wild type, SEQ ID NO: 12 (Cupriavidus necator, UniProt Q0K874)
# T1 sequence (Q0K874 1-542): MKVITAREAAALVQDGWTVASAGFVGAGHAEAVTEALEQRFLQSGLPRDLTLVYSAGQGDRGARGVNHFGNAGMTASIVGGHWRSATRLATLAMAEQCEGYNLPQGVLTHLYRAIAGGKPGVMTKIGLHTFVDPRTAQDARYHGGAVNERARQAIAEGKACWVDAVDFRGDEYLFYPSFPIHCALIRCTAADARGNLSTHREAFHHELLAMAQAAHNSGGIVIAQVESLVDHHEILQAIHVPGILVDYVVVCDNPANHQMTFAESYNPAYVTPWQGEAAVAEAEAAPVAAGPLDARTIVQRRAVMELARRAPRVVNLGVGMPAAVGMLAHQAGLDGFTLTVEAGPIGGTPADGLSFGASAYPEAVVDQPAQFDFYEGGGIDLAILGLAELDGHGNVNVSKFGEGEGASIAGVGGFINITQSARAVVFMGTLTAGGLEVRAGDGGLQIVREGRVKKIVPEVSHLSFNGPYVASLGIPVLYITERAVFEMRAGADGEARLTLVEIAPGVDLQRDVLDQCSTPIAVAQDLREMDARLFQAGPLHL
# T2: malonyl-CoA reductase from Chloroflexus aurantiacus (MCRCa), SEQ ID NO: 8 (Chloroflexus aurantiacus, UniProt Q6QQP7)
# T2 sequence (Q6QQP7 1-1220): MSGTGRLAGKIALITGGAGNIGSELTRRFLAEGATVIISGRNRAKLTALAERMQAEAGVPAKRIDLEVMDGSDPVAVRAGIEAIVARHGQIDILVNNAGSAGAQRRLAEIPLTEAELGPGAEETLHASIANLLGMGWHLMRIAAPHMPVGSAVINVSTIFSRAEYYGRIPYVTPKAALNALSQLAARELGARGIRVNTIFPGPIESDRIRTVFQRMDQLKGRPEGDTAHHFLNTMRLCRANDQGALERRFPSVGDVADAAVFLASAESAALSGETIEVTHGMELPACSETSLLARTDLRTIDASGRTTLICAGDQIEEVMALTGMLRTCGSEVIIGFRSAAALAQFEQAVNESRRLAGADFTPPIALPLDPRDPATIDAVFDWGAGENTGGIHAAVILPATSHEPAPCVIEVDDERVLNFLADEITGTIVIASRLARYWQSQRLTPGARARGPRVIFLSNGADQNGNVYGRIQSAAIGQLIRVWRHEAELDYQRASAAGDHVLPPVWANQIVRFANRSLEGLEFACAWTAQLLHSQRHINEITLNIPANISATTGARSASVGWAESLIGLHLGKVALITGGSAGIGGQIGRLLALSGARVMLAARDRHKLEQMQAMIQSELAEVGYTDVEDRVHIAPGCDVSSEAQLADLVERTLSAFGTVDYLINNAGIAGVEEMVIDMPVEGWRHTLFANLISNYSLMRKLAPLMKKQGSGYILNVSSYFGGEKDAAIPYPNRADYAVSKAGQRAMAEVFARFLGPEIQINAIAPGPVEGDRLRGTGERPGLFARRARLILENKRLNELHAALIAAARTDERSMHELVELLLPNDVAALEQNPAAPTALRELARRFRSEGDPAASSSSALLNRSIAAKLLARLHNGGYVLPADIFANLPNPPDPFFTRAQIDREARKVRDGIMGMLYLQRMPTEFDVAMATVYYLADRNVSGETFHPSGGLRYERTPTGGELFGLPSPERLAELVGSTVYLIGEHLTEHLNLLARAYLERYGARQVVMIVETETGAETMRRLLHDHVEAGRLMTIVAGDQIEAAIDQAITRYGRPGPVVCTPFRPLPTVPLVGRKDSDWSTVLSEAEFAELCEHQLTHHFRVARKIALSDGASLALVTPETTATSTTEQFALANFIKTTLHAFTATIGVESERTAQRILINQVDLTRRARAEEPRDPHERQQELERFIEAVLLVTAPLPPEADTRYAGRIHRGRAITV
# Columns and labels:
# [1] = molecular target: T1, propionyl-CoA transferase from Ralstonia eutropha (PCTRe), wild type, SEQ ID NO: 12; conditions: 37° C., pH 7.5, 2 mM acetyl-CoA, 10-800 mM glycolate; n=3
# [2] = molecular target: T2, malonyl-CoA reductase from Chloroflexus aurantiacus (MCRCa), SEQ ID NO: 8; conditions: read-out: apparent Km value for malonyl-CoA; Hügler et al., 2002; cited from earlier work
# tartronyl-CoA = assay: malonyl-CoA reductase spectrophotometric assay, NADPH oxidation at 365 nm, tartronyl-CoA into glycerate (reactions 4# and 5); format: biochemical; conditions: 0.25 mM tartronyl-CoA, 37° C.
# Description: The kinetics of the MCRCa enzyme for enzymatically converting the substrate tartonyl-CoA into glycerate (via reactions 4# and 5 both catalyzed by MCRCa) were determined spectrophotometrically at 365 nm following the oxidation of NADPH. Per molecule tartronyl-CoA, two molecules of NADPH are oxidized by MCRCa (a first in reaction 4# and a second in reaction 5) The measurements were carried out at 37° C. in a total reaction volume of 200 μL containing 100 mM MOPS buffer (with 5 mM MgCl2, pH 7.5) with an initial NADPH concentration of 0.4 mM NADPH and 23 μg MCRCa.
# An alternative enzyme for catalyzing the conversion of tartonyl-CoA into glycerate (via reactions 4# and 5) is the MCR from Erythrobacter sp. NAP1 (MCRE). It was tested for its activity with malonyl-CoA and for tartronyl-CoA with the assay described above for MCRCa.
# glycolyl-CoA = assay: MCRCa coupled assay: glycolyl-CoA carboxylation by PCC coupled to two step reduction to glycerate by MCRCa (reactions 3#, 4#, 5), HPLC-hrMS and NADPH absorption; format: biochemical; conditions: tartronyl-CoA produced by PCCMe_D407I_Y143H
# Description: In addition to the above mentioned assays also another assay was performed in which the formation of tartronyl-CoA from glycolyl-CoA (reaction 3#) by the PCCMe_D407I_Y143H enzyme was directly coupled to its subsequent two step reduction via tartronate-semialdehyde (reaction 4#) to glycerate (reaction 5) by use of the purified MCRCa (Kröger et al., 2011, loc. cit.). The reaction mixture (300 μL) contained 200 mM NH4HCO3 buffer, pH 7.7, 5 mM MgCl2, 1 mM ATP, 0.4 mM NADPH, 43 μg PCCMe_D407I_Y143H, and 184 μg of MCRCa.
# To determine whether MCRCa was able to catalyze the two step reduction of tartonyl-CoA to glycerate (via tartronic semialdehyde), samples of the reaction mixture were withdrawn after all of the NADPH was consumed. The samples were stopped with formic acid (5% final concentration). The acidified samples were centrifuged at 4° C. and 17 000×g and the supernatants were analyzed by HPLC-hrMS.
# The formation of glycerate was analyzed using an Agilent 6550 iFunnel Q-TOF LC-MS system equipped with an electrospray ionization source set to negative ionization mode. […]
# LC-MS data were analyzed using MassHunter Qualitative Analysis software (Agilent). […] In such assays the tartronate semialdehyde can be covalently derivatized with phenylhydrazine to a phenylhydrazone, which can be detected by its absorbance at 324 nm and confirmed by its corresponding mass spectrum. […]
# malonyl-CoA = conditions: 0.3 mM substrate, 37° C., Kröger et al. 2011; cited from earlier work
molecule,measurement,setting,value
O=C(O)CO [glycolate],vmax,[1],1.3 ± 0.07 U mg^−1
CC(C)(COP(=O)(O)OP(=O)(O)OC[C@H]1O[C@@H](n2cnc3c(N)ncnc32)[C@H](O)[C@@H]1OP(=O)(O)O)[C@@H](O)C(=O)NCCC(=O)NCCSC(=O)CC(=O)O [malonyl-CoA],Km,[2],30 µM
"MCRCa: malonyl-CoA reductase of Chloroflexus aurantiacus, NCBI accession no. AAS20429.1, SEQ ID NO: 8 (protein, listed as Chloroflexus aurantiacus, [CDS]1..3663 from SEQ ID NO 7) MSGTGRLAGKIALITGGAGNIGSELTRRFLAEGATVIISGRNRAKLTALAERMQAEAGVPAKRIDLEVMDGSDPVAVRAGIEAIVARHGQIDILVNNAGSAGAQRRLAEIPLTEAELGPGAEETLHASIANLLGMGWHLMRIAAPHMPVGSAVINVSTIFSRAEYYGRIPYVTPKAALNALSQLAARELGARGIRVNTIFPGPIESDRIRTVFQRMDQLKGRPEGDTAHHFLNTMRLCRANDQGALERRFPSVGDVADAAVFLASAESAALSGETIEVTHGMELPACSETSLLARTDLRTIDASGRTTLICAGDQIEEVMALTGMLRTCGSEVIIGFRSAAALAQFEQAVNESRRLAGADFTPPIALPLDPRDPATIDAVFDWGAGENTGGIHAAVILPATSHEPAPCVIEVDDERVLNFLADEITGTIVIASRLARYWQSQRLTPGARARGPRVIFLSNGADQNGNVYGRIQSAAIGQLIRVWRHEAELDYQRASAAGDHVLPPVWANQIVRFANRSLEGLEFACAWTAQLLHSQRHINEITLNIPANISATTGARSASVGWAESLIGLHLGKVALITGGSAGIGGQIGRLLALSGARVMLAARDRHKLEQMQAMIQSELAEVGYTDVEDRVHIAPGCDVSSEAQLADLVERTLSAFGTVDYLINNAGIAGVEEMVIDMPVEGWRHTLFANLISNYSLMRKLAPLMKKQGSGYILNVSSYFGGEKDAAIPYPNRADYAVSKAGQRAMAEVFARFLGPEIQINAIAPGPVEGDRLRGTGERPGLFARRARLILENKRLNELHAALIAAARTDERSMHELVELLLPNDVAALEQNPAAPTALRELARRFRSEGDPAASSSSALLNRSIAAKLLARLHNGGYVLPADIFANLPNPPDPFFTRAQIDREARKVRDGIMGMLYLQRMPTEFDVAMATVYYLADRNVSGETFHPSGGLRYERTPTGGELFGLPSPERLAELVGSTVYLIGEHLTEHLNLLARAYLERYGARQVVMIVETETGAETMRRLLHDHVEAGRLMTIVAGDQIEAAIDQAITRYGRPGPVVCTPFRPLPTVPLVGRKDSDWSTVLSEAEFAELCEHQLTHHFRVARKIALSDGASLALVTPETTATSTTEQFALANFIKTTLHAFTATIGVESERTAQRILINQVDLTRRARAEEPRDPHERQQELERFIEAVLLVTAPLPPEADTRYAGRIHRGRAITV",specific activity with tartronyl-CoA,tartronyl-CoA,0.6 U mg^−1
same,reduction of tartronyl-CoA to glycerate (HPLC-hrMS),glycolyl-CoA,"able to reduce the tartronyl-CoA, produced by PCCMe_D407I_Y143H, to glycerate"
same,specific activity with malonyl-CoA,malonyl-CoA,approximately 7 U mg^−1
